The target of assay [1] is T1, human neuropeptide Y2 receptor (human, UniProt P49146 1-381).
T1 construct: whole, on cells; also called hNPY2 receptor; hNPY2-R
T1 sequence (looked up): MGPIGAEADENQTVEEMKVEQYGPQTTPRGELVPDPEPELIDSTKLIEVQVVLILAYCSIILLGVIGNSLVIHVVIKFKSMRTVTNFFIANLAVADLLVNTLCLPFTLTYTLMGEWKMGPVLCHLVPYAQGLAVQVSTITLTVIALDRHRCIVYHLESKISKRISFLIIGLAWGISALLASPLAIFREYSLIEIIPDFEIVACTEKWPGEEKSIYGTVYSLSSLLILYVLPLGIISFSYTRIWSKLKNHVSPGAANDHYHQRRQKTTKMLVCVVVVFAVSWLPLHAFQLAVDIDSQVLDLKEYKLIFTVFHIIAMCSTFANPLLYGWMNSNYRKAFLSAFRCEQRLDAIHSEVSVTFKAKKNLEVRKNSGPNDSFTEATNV
As to the kind of experiment: radioligand competition (125I-PYY(1-36)), hNPY2R membranes. The procedure, abridged: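 Commercial human Y2 receptor membranes (0.5 μg protein/well) were incubated with peptide for 2 h at room temperature in 50 mM HEPES, 5 mM MgCl₂, 1 mM CaCl₂, pH 7.4, with 0.2% ovalbumin. Bound radioligand was separated on PEI-soaked GF/C filters and counted by scintillation, and IC₅₀ came from nonlinear sigmoidal regression.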

A further assay addresses human NPY4 receptor (human, UniProt P50391 1-375). The assay can be described thus: cell-based or functional assay.
For another assay, the target named is T2, human NPY1 receptor (human, UniProt P25929 1-384).
T2 sequence (looked up): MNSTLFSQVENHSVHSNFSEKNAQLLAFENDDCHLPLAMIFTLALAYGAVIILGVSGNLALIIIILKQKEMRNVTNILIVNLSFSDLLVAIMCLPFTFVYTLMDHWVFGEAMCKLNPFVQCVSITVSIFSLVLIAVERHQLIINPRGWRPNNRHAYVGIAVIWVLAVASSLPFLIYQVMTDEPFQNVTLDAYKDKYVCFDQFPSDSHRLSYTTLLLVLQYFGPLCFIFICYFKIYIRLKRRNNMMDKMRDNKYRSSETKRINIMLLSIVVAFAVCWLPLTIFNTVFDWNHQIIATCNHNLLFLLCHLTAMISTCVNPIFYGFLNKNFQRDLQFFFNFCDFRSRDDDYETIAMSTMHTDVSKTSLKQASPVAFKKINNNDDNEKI
The assay can be described thus: cell-based or functional assay.

Assay [2] deals with T1, human neuropeptide Y2 receptor. As to the kind of experiment: cell-based or functional assay.
A further assay concerns the target T3, human NPY5 receptor (human, UniProt Q15761 1-445).
T3 sequence (looked up): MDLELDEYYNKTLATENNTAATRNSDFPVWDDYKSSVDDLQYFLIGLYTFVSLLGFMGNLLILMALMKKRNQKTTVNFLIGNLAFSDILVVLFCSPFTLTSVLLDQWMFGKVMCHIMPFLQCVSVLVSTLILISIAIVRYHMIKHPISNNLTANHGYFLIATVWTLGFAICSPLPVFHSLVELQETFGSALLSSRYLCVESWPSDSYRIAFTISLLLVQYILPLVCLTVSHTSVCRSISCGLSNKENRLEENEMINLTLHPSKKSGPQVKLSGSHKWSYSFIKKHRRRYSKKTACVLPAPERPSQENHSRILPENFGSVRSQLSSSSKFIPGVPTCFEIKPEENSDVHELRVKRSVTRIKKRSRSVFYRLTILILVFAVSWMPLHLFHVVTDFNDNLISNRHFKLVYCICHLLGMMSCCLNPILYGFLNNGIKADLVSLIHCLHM
The assay can be described thus: cell-based or functional assay.

Assay [3] deals with T1, human neuropeptide Y2 receptor. As to the kind of experiment: ratio of apparent Ki, pH 6.1-6.2 over pH 7.1-7.2. As for the experimental part:
(§1) The filtration RLB assay was carried out in 96-well plates in a final volume of 100 μl per well. Freeze-dried test peptides were dissolved in 100% dimethyl sulfoxide (DMSO) to stock solutions of 1 mM and serial dilutions were performed in assay buffer (50 mM HEPES, 5 mM MgCl₂, 1 mM CaCl₂, pH 7.4) containing 0.2% ovalbumin. […] Next, 80 μL membranes (HTS066M, ChemiSCREEN™ Human Neuropeptide Y2 Receptor Membrane Preparation, CHEMICON) were added to each well to give a final protein concentration of 0.5 μg/well. The plates were sealed and incubated at room temperature for 2 hours in a plate shaker set at 400 rpm. The incubation was stopped by vacuum filtration onto 0.5% poly-ethylene amine (PEI) presoaked GF/C filters using a 96-well FilterMate™ harvester (Perkin Elmer) followed by four washes with 300 μl/well ice-cold wash buffer (50 mM HEPES, 500 mM NaCl, pH7.4). Filter plates were then dried for 60 min at room temperature and the bottom of the plates was sealed with backing tape UniFilter-96. Finally, 50 μl/well scintillation counter cocktail (Microscint20, Packard) was added and the radioactivity was counted in the Packard TopCount NXT scintillation counter. IC₅₀ values (the half maximal inhibitory concentration of the agonist) were calculated by nonlinear regression analysis of sigmoidal dose-response curves.
(§2) Peptides (as TFA salts) were weighed out in a filter unit (Mini-UniPrep Syringeless Filter 0.45 μm, Whatman), and 0.1 M sodium diphosphate buffer at pH 6.4 or 7.4, respectively, or 0.2 M TRIS buffer at pH 8.3 was added to achieve 10 mg/ml final concentration. The peptide was (partially) dissolved by shaking the filter unit horizontally at approx. 400 rpm for 2 hours at room temperature. The sample was filtered to remove any insoluble particles.

Assay [4] shares this target. The assay can be described thus: ratio of apparent Ki, pH 8.1-8.2 over pH 7.1-7.2. The procedure: as §1, §2
For assay [5] the target is unchanged. The assay can be described thus: RLB 8: apparent Ki of filtrate after incubation at pH 8.1-8.2. The procedure: as §1, §2
For assay [6] the target is unchanged. The assay can be described thus: RLB 6: apparent Ki of filtrate after incubation at pH 6.1-6.2.
For assay [7] the target is unchanged. The assay can be described thus: RLB 7: apparent Ki of filtrate after incubation at pH 7.1-7.2. The procedure: as §1, §2
The target is the same in assay [8]. As to the kind of experiment: radioligand competition (125I-PYY(1-36)), hY2R membranes; DMSO stock. The procedure: as §1
For orientation: Displacement assays read how much labelled ligand stays bound in the presence of the test substance.

Assay [9] has the same target. The assay can be described thus: cell-based or functional assay. This is another data set of the same source.

*1 amine or outer side, *2 acyl side, *3 side chain or, on linkers, in order; H or OH if unused. Side-chain parts run from the residue outwards. The star is where a group is joined. C18 diacid = O=C(O)CCCCCCCCCCCCCCCCC(=O)*; γGlu = O=C(O)[C@H](CCC(=O)[*:2])N[*:1]; Isovaleryl = CC(C)CC(=O)*; AEEA = NCCOCCOCC(=O)O

Sequence of human NPY4 receptor (P50391 whole entry): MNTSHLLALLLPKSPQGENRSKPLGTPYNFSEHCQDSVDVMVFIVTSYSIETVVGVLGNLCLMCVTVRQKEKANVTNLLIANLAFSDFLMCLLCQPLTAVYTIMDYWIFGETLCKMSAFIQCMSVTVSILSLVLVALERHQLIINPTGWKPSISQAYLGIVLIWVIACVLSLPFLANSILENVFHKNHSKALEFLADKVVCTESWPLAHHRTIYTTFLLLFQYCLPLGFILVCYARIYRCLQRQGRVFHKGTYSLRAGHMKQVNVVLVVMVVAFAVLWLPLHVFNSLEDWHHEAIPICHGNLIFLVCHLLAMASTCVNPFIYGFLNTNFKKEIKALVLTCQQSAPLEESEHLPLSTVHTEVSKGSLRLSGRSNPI

In the case of Isovaleryl-APAK([AEEA-AEEA-γGlu-C18 diacid])PEEDATPEELQRYYVSLRHYYNWLTRQRY-NH2 [Compound 106], the Ki in [1] came to 0.66 nM; in [5], 7.5 nM; in [6] it was 7.7 nM; in [7], 9.3 nM; in assay [8] it was 6 nM. Further, the “EC50 (HTRF cAMP Gi assay)” value is above 5000 nM with human NPY4 receptor, above 5000 nM in the assay with human NPY1 receptor, 0.173 nM in assay [2] and above 5000 nM with human NPY5 receptor. The “RLB ratio (RLB6/RLB7)” value in assay [3] worked out at 0.8. Also, in assay [4], the “RLB ratio (RLB8/RLB7)” value was determined as 0.8.

B1: Ref. 3 (peptide)
peptide: Isovaleryl-RPEK([AEEA-AEEA-γGlu-C18 diacid])PGEDASPEELQRYYVSLRAYYNWLTRQRY-NH2
SMILES: CC(C)CC(=O)N[C@@H](CCCNC(=N)N)C(=O)N1CCC[C@H]1C(=O)N[C@@H](CCC(=O)O)C(=O)N[C@@H](CCCCNC(=O)COCCOCCNC(=O)COCCOCCNC(=O)CC[C@H](NC(=O)CCCCCCCCCCCCCCCCC(=O)O)C(=O)O)C(=O)N1CCC[C@H]1C(=O)NCC(=O)N[C@@H](CCC(=O)O)C(=O)N[C@@H](CC(=O)O)C(=O)N[C@@H](C)C(=O)N[C@@H](CO)C(=O)N1CCC[C@H]1C(=O)N[C@@H](CCC(=O)O)C(=O)N[C@@H](CCC(=O)O)C(=O)N[C@@H](CC(C)C)C(=O)N[C@@H](CCC(N)=O)C(=O)N[C@@H](CCCNC(=N)N)C(=O)N[C@@H](Cc1ccc(O)cc1)C(=O)N[C@@H](Cc1ccc(O)cc1)C(=O)N[C@H](C(=O)N[C@@H](CO)C(=O)N[C@@H](CC(C)C)C(=O)N[C@@H](CCCNC(=N)N)C(=O)N[C@@H](C)C(=O)N[C@@H](Cc1ccc(O)cc1)C(=O)N[C@@H](Cc1ccc(O)cc1)C(=O)N[C@@H](CC(N)=O)C(=O)N[C@@H](Cc1c[nH]c2ccccc12)C(=O)N[C@@H](CC(C)C)C(=O)N[C@H](C(=O)N[C@@H](CCCNC(=N)N)C(=O)N[C@@H](CCC(N)=O)C(=O)N[C@@H](CCCNC(=N)N)C(=O)N[C@@H](Cc1ccc(O)cc1)C(N)=O)[C@@H](C)O)C(C)C
For B1, the Ki in [1] came to 1.69 nM. Besides, the “EC50 (hY2 cAMP, HTRF cAMP Gi assay)” value in [9] amounted to 0.375 nM.
